Source: article PMC11957774 (The Journal of Biological Chemistry, 2025)

Each binder was assayed against T1, MLL4 PHD2/3 fingers (aa 227-324), 15N-labeled (human, UniProt O14686 227-324, uniformly 15N-labeled) (assay: NMR titration).
T1 sequence (looked up): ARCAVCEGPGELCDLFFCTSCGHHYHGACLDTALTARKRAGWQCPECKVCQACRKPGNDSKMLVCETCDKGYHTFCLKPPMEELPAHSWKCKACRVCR

Binder	binding result
NRTGAITLADIKAKAQLVKAQ (peptide, UniProt Q76L83 650-670, looked up) [ASXL2 peptide (residues 650-670 of ASXL2) R655I]	binds
GWTGARTLADIKARALQVRGA (peptide, UniProt Q8IXJ9 607-627, looked up) [ASXL1 peptide (residues 607-627 of ASXL1), wild type]	binds
GWTGTRTLADIKARALQVRGA (peptide, UniProt Q8IXJ9 607-627, looked up) [ASXL1 peptide (residues 607-627 of ASXL1) A611T]	binds
